Values quoted from earlier work, collected in paper PMC6236854 (Molecular Imaging, 2018).
Ends that are not written are not given here.

Assays:
[1] = test system: GHSR1a; details: read-out: half-maximal inhibitory concentration (IC50), binding affinity
[2] = not given; remark: listed apart in the source

For “ghrelin (GSSFLSPEHQRVQQRKESKKPPAKLQPR; ends and bridges not checked; UniProt Q9UBU3 24-51, looked up) [human ghrelin]”, the IC50 [1] is given as 7.63 nM, the “in vitro half-life in human serum” value is given as 4 h and the “in vitro half-life in rat serum” value [2] is given as 0.5 h.
